In patent US7105647 (WISCONSIN ALUMNI RESEARCH FOUNDATION, dated 2006):

How the values were obtained:
[1] = molecular target: T1, human aryl hydrocarbon receptor (AHR), full length (human, UniProt P35869 1-848); assay: yeast two-hybrid, lacZ reporter, with and without 1 µM βNF
T1 construct: Full length in yeast (PRSAHR) and in the Hsp90 co-IP (huAHR); also called huAHR; Ah receptor
T1 sequence (looked up): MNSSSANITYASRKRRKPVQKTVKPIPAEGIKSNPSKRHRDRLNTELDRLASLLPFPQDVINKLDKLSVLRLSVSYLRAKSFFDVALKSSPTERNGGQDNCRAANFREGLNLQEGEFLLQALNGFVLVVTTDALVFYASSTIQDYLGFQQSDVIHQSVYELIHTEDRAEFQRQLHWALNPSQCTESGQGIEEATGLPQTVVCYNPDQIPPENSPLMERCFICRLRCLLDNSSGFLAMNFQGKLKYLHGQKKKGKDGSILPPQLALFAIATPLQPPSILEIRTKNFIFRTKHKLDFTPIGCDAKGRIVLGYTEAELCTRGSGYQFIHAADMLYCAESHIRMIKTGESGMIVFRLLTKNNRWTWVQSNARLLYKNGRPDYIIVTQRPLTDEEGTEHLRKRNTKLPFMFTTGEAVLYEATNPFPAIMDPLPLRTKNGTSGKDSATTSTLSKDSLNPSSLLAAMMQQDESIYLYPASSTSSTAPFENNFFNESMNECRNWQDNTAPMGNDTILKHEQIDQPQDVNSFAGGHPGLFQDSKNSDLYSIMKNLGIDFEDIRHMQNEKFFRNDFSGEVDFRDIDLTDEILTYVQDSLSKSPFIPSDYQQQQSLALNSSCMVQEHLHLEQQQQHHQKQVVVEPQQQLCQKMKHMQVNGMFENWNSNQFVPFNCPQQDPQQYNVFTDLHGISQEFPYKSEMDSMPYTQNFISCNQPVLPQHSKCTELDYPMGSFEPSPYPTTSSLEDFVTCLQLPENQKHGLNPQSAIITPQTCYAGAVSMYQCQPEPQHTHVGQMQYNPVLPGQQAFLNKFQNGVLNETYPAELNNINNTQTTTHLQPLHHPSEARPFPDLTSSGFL
Text: (§1) This plasmid was designated PL371, and subsequently was digested with NotI and XhoI, this fragment cloned into the corresponding sites of pSGBCU11. This clone was designated PL574. The LexAMOP fusion protein constructs were cotransformed with a yeast expression vector containing the full length AHR or ARNT into L40, a yeast strain containing integrated lacZ and HIS3 reporter genes. As controls, LexAAHR and LexAARNT were cotransformed with AHR and ARNT. The strength of interaction was visually characterized by X-Gal (5-bromo-4-chloro-3-indolyl-(-D-galactoside) plate assays, performed after three days growth on selective media (Bohen et al, Proc. Natl. Acad. Sci. USA 90: 11424–11428, 1993). To provide quantitation of the interaction strength, multiple colonies from yeast harboring each bHLH-PAS combination colonies were grown overnight in liquid media. Liquid cultures were grown for 5 hours, and assayed for lacZ activity using the Galacto-Light chemiluminescence reporter system (Tropix, Bedford, Mass.). To determine the effect of AHR agonists on these interactions, yeast were also grown on plates or in liquid culture with and without 1 μM βNF (Carver et al., J. Biol. Chem. 269: 30109–30112, 1994).
(§2) 2. Interaction of MOPs with the AHR and ARNT in vivo; Yeast two-hybrid experiments. […]

[2] = molecular target: T2, AH receptor nuclear translocator (ARNT), full length (human, UniProt P27540 1-789); assay: yeast two-hybrid with full-length ARNT, lacZ reporter
T2 construct: Full length: in vitro translated, expressed in yeast (PL574) or transfected; Endogenous ARNT in the Hep3B experiment; also called huARNT; hARNT
Text: as §1, §2

T2 sequence (P27540 whole entry): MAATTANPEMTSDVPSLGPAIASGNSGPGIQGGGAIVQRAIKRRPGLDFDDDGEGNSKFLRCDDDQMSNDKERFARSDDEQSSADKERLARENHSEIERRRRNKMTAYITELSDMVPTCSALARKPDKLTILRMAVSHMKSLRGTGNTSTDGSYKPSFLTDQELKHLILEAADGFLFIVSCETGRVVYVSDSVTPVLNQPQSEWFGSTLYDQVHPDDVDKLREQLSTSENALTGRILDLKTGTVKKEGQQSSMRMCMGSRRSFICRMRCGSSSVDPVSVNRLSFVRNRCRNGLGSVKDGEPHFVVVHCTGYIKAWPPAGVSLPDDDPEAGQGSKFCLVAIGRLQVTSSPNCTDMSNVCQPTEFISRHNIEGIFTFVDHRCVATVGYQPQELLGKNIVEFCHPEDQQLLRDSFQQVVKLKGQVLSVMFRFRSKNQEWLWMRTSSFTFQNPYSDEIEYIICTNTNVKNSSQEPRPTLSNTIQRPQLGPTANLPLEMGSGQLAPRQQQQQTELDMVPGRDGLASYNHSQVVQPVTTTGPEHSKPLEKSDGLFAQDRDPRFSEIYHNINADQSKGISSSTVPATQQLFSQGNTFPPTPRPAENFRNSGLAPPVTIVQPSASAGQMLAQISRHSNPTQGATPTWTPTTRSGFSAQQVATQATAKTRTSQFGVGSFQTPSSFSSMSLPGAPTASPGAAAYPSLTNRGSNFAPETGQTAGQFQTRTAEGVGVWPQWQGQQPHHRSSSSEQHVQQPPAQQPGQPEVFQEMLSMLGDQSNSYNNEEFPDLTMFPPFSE

B1: LexAMOP4 (other)
chain: MKALTARQQEVFDLIRDHISQTGMPPTRAEIAQRLGFRSPNAAEEHLKALARKGVIEIVSGASRGIRLLQEEEEGLPLVGRVAAGEPLLAQQHIEGHYQVDPSLFKPNADFLLRVSGMSMKDIGIMDGDLLAVHKTQDVRNGQVVVARIDDEVTVKRLKKQGNKVELLPENSEFKPIVVDLRQQSFTIEGLAVGVIRNGDWLMDEDEKDRAKRASRNKSEKKRRDQFNVLIKELSSMLPGNTRKMDKTTVLEEVIGFLQKHNEVSAQTEICDIQQDWKPSFLSNEEFTQLMLEALDGFIIAVTTDGSIIYVSDSITPLLGHLPSDVMDQNLLNFLPEQEHSEVYKILSSHMLVTDSPSPEYLKSDGDLEFYCHLLRGSLNPKEFPTYEYIKFVGNFRSYNNVPSPSCNGFDNTLSRPCRVPLGKEVCFIATVRLATPQFLKEMCIVDEPLEEFTSRHSLEWKFLFLDHRAPPIIGYLPFEVLGTSGYDYYHIDDLELLARCHQHLMQFGKGKSCCYRFLTKGQQWIWLQTHYYITYHQWNSKPEFIVCTHSVVSYADVRVERRQELA
notes: range 1-202; also called LexAbHLH-PAS fusion of MOP4; MOP4 bait plasmid
B1: no binding [1]; no binding [2].
